The record followed here is paper PMC5070160, “Efficient biosynthesis of ethyl (R)-4-chloro-3-hydroxybutyrate using a stereoselective carbonyl reductase from Burkholderia gladioli” (BMC Biotechnology, 2016).

Substrate in series [1]: NC(=O)C1=CN([C@@H]2O[C@H](COP(=O)(O)OP(=O)(O)OC[C@H]3O[C@@H](n4cnc5c(N)ncnc54)[C@H](O)[C@@H]3O)[C@@H](O)[C@H]2O)C=CC1
The series can be described thus: purified protein. Format: biochemical, Burkholderia gladioli. As to conditions: apparent, COBE (ethyl 4-chloro-3-oxobutanoate) 50 mM, NADH 0.01-0.5 mM, pH 6.5, 40 °C, varied: cofactor.

Substrate in series [2]: NC(=O)C1=CN([C@@H]2O[C@H](COP(=O)(O)OP(=O)(O)OC[C@H]3O[C@@H](n4cnc5c(N)ncnc54)[C@H](OP(=O)(O)O)[C@@H]3O)[C@@H](O)[C@H]2O)C=CC1
The series can be described thus: purified protein. Format: biochemical, Burkholderia gladioli. As to conditions: apparent, COBE (ethyl 4-chloro-3-oxobutanoate) 50 mM, NADPH 0.01-0.5 mM, pH 6.5, 40 °C, varied: cofactor.

The term Km denotes the substrate concentration at which the rate is half of its maximum. By Vmax is commonly meant the top rate of the reaction or transport when substrate is in excess. Usually kcat stands for the maximal rate divided by the concentration of active sites. Usually kcat/Km stands for the turnover number divided by the Michaelis constant.

B1: BgADH3 (Burkholderia gladioli BSR3) (protein)
chain: MSETNSRRDFLRHAAAGTAGVAVAAVPGIAAAADGAPDAMPPLARMRNPHDLYPRAPFARQVQPVPGLASKMVPRPDHGETSYRGSNRLAGRKALVTGGDSGIGRAAAIAFAREGADVAINYLPVEESDAREVVALIRKEGRKCVAIPGDIRTEAFCRQLVERAVAELGGLDVLVSNAGHQQARDDIQDISSEQFEQTMKTNVYAPFWIAKAALPHMPAGSSVILTTSEQAFLPSANLLDYAPTKAANIAFVKALAKQQAPRGIRVNAVAPGATWTPLQTSGGQPPEVIDRFGQDNPTGRPAQPVELAPLYVTLASAESSFSSGQVFGANGATGAA
As to B1, in the series “purified protein [1]”, the Michaelis-Menten constant (Km) turned out to be 58 µM, the Vmax amounted to 3.4 µmol/min/mg, the turnover number (kcat) worked out at 3.97 s⁻¹ and the kcat/Km was found to be 68300 M⁻¹ s⁻¹. Besides, in the series “purified protein [2]”, the Km came to 81 µM, the Vmax amounted to 9.1 µmol/min/mg, the kcat is 10.6 s⁻¹ and the kcat/Km stood at 131000 M⁻¹ s⁻¹.
